In experiment [1] the target is Rco_(LS20)-His(6) (Bacillus subtilis (plasmid pLS20cat)). The experiment is described as follows: AUC; sedimentation equilibrium; 10 to 30 uM Rco_(LS20); same buffer as sedimentation velocity; 7,000 to 10,000 rpm; 280 nm; single species model (HeteroAnalysis).
For experiment [2] the target is unchanged. The experiment is described as follows: AUC; sedimentation velocity; 10 uM purified Rco_(LS20); 20 mM Tris-HCl, 250 mM NaCl, 10 mM MgCl2, 1 mM EDTA, 100 mM glycerol, pH 7.4; 43-48 krpm; 280 nm; c(s) analysis with SEDFIT.

Take Rco_(LS20)-His(6) (natural protein): the stoichiometry N in experiment [1] and in experiment [2] was 4 in each case.

Source of the values: PMC4207663.
